Reference: US20250066745A1, “MUTANTS AND USE THEREOF” (BGI SHENZHEN, priority 2021, published 2025)

Key:
Format in all cases: biochemical
Set-up in all cases: key to Activity of mutant relative to wild-type Gaussia luciferase without the signal peptide: ratio of mutant luminescence intensity to wild-type Gaussia luciferase
[1] = Luminescence activity assay of purified Gaussia luciferase mutants on coelenterazine; conditions: Substrate CTZ (Table 16)
Summary of the method: (§1)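 Readout: luminescence intensity, as ratio to signal-peptide-free wild-type enzyme. Enzyme 1 μg/mL, substrate 100 μM stock, 10 μL + 90 μL; buffer 50 mM Tris-HCl pH 8.0, 100 mM NaCl, 0.1% Tween-20.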

[2] = Luminescence activity assay of purified Gaussia luciferase mutants on fluoro-coelenterazine; conditions: Substrate f-CTZ (Table 16)
Summary of the method: as §1

[3] = Luminescence activity assay of purified Gaussia luciferase mutants on coelenterazine derivative ZS2; conditions: Substrate ZS2 (Table 16)
Summary of the method: as §1

B1: P84K E102A: Gaussia luciferase mutant (protein)
chain: MGVKVLFALICIAVAEAKPTENNEDFNIVAVASNFATTDLDADRGKLPGKKLPLEVLKEMEANARKAGCTRGCLICLSHIKCTKKMKKFIPGRCHTYEGDKASAQGGIGEAIVDIPEIPGFKDLEPMEQFIAQVDLCVDCTTGCLKGLANVQCSDLLKKWLPQRCATFASKIQGQVDKIKGAGGD
modifications: SIGNAL (1)..(17)
notes: Gaussia luciferase mutant
[1]
  Activity of mutant relative to wild-type Gaussia luciferase without the signal peptide: 0.000
[2]
  Activity of mutant relative to wild-type Gaussia luciferase without the signal peptide: 0.009
[3]
  Activity of mutant relative to wild-type Gaussia luciferase without the signal peptide: 0.001

B2: Q152H Q163D T167S S170N G174K A182L G183N: Gaussia luciferase mutant (protein)
chain: MGVKVLFALICIAVAEAKPTENNEDFNIVAVASNFATTDLDADRGKLPGKKLPLEVLKEMEANARKAGCTRGCLICLSHIKCTPKMKKFIPGRCHTYEGDKESAQGGIGEAIVDIPEIPGFKDLEPMEQFIAQVDLCVDCTTGCLKGLANVHCSDLLKKWLPDRCASFANKIQKQVDKIKGLNGD
modifications: SIGNAL (1)..(17)
notes: Gaussia luciferase mutant
[1]
  Activity of mutant relative to wild-type Gaussia luciferase without the signal peptide: 0.144
[2]
  Activity of mutant relative to wild-type Gaussia luciferase without the signal peptide: 0.234
[3]
  Activity of mutant relative to wild-type Gaussia luciferase without the signal peptide: 0.159

B3: P84K E102K S103I E110P L124M V138D: Gaussia luciferase mutant (protein)
chain: MGVKVLFALICIAVAEAKPTENNEDFNIVAVASNFATTDLDADRGKLPGKKLPLEVLKEMEANARKAGCTRGCLICLSHIKCTKKMKKFIPGRCHTYEGDKKIAQGGIGPAIVDIPEIPGFKDMEPMEQFIAQVDLCDDCTTGCLKGLANVQCSDLLKKWLPQRCATFASKIQGQVDKIKGAGGD
modifications: SIGNAL (1)..(17)
notes: Gaussia luciferase mutant
[1]
  Activity of mutant relative to wild-type Gaussia luciferase without the signal peptide: 0.036
[2]
  Activity of mutant relative to wild-type Gaussia luciferase without the signal peptide: 3.010
[3]
  Activity of mutant relative to wild-type Gaussia luciferase without the signal peptide: 0.536

B4: Q152H Q163D T167G S170V G174K Q175E K178N: Gaussia luciferase mutant (protein)
chain: MGVKVLFALICIAVAEAKPTENNEDFNIVAVASNFATTDLDADRGKLPGKKLPLEVLKEMEANARKAGCTRGCLICLSHIKCTPKMKKFIPGRCHTYEGDKESAQGGIGEAIVDIPEIPGFKDLEPMEQFIAQVDLCVDCTTGCLKGLANVHCSDLLKKWLPDRCAGFAVKIQKEVDNIKGAGGD
modifications: SIGNAL (1)..(17)
notes: Gaussia luciferase mutant
[1]
  Activity of mutant relative to wild-type Gaussia luciferase without the signal peptide: 1.749
[2]
  Activity of mutant relative to wild-type Gaussia luciferase without the signal peptide: 0.215
[3]
  Activity of mutant relative to wild-type Gaussia luciferase without the signal peptide: 0.862

B5: Q152H Q163D S170N G174S Q175E D177S A182Y: Gaussia luciferase mutant (protein)
chain: MGVKVLFALICIAVAEAKPTENNEDFNIVAVASNFATTDLDADRGKLPGKKLPLEVLKEMEANARKAGCTRGCLICLSHIKCTPKMKKFIPGRCHTYEGDKESAQGGIGEAIVDIPEIPGFKDLEPMEQFIAQVDLCVDCTTGCLKGLANVHCSDLLKKWLPDRCATFANKIQSEVSKIKGYGGD
modifications: SIGNAL (1)..(17)
notes: Gaussia luciferase mutant
[1]
  Activity of mutant relative to wild-type Gaussia luciferase without the signal peptide: 1.007
[2]
  Activity of mutant relative to wild-type Gaussia luciferase without the signal peptide: 0.404
[3]
  Activity of mutant relative to wild-type Gaussia luciferase without the signal peptide: 0.347

B6: Q152H Q163D T167S S170D G174K Q175E K178S A182Y G183N: Gaussia luciferase mutant (protein)
chain: MGVKVLFALICIAVAEAKPTENNEDFNIVAVASNFATTDLDADRGKLPGKKLPLEVLKEMEANARKAGCTRGCLICLSHIKCTPKMKKFIPGRCHTYEGDKESAQGGIGEAIVDIPEIPGFKDLEPMEQFIAQVDLCVDCTTGCLKGLANVHCSDLLKKWLPDRCASFADKIQKEVDSIKGYNGD
modifications: SIGNAL (1)..(17)
notes: Gaussia luciferase mutant
[1]
  Activity of mutant relative to wild-type Gaussia luciferase without the signal peptide: 0.383
[2]
  Activity of mutant relative to wild-type Gaussia luciferase without the signal peptide: 0.509
[3]
  Activity of mutant relative to wild-type Gaussia luciferase without the signal peptide: 0.068
